Patent US20210024654A1 (AMPHIVENA THERAPEUTICS, published 2021)

Assays:
[1] = target: cynomolgus CD33 (cynomolgus); test: flow cytometry KDs on CHO cells, cyno CD33 / human CD33
[2] = target: human CD3 (human, UniProt P07766 23-207); test: cell-based or functional assay
Sequence of human CD3 (P07766 23-207): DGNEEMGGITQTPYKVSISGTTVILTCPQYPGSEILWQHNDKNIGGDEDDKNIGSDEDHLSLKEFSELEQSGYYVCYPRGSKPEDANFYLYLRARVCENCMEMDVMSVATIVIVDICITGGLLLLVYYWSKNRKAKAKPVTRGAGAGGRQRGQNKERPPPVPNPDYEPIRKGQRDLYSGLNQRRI

Binder	KD ratio CynoCD33/huCD33 [1]	T cell Proliferation in PBMC EC50 [2] [nM]
CD33/CD3 tandem diabody 17 (bispecific antibody) DIQMTQSPSSLSASVGDRVTITCRSSTGAVTTSNYANWVQQKPGKAPKALIGGTNKRAPGVPSRFSGSLIGDKATLTISSLQPEDFATYYCALWYSNLWVFGQGTKVEIKGGSGGSQVQLVQSGAEVKKPGESLKISCKGSGYSFTSYWIGWVRQMPGKGLEWMGIIYPGDSDTRYSPSFQGQVTISADKSISTAYLQWSSLKASDTAMYYCARHKRGSDAFDIWGQGTTVTVSSGGSGQSVLTQPPSVSGAPGQRVTISCTGSSSNIGAGYDVHWYQQLPGTAPKLLIYGNSNRPSGVPDRFSGSKSGTSASLAITGLQAEDEADYYCQSYDSSLSDVVFGGGTKLTVLGGSGGSEVQLVESGGGLVQPGGSLRLSCAASGFTFSTYAMNWVRQAPGKGLEWVGRIRSKYNNYATYYADSVKDRFTISRDDSKNSLYLQMNSLKTEDTAVYYCARHGNFGNSYVSYFAYWGQGTLVTVSSAAAGSHHHHHH	1.9	–
CD33/CD3 tandem diabody 14 (bispecific antibody) DIQMTQSPSSLSASVGDRVTITCRSSTGAVTTSNYANWVQQKPGKAPKALIGGTNKRAPGVPSRFSGSLIGDKATLTISSLQPEDFATYYCALWYSNLWVFGQGTKVEIKGGSGGSQVQLVQSGAEVKKPGASVKVSCKASGYTFTSYDINWVRQAPGQGLEWMGWMNPNSGNTGFAQKFQGRVTMTRDTSTSTVYMELSSLRSEDTAVYYCARDRANTDFSYGMDVWGQGTLVTVSSGGSGQSVLTQPPSASGTPGQRVTISCSGSRSNIGSNTVNWYQQLPGTAPKLLIYGNNQRPSGVPDRFSGSKSGSSASLAISGLQSEDEADYYCATWDDSLIGWVFGGGTKLTVLGGSGGSEVQLVESGGGLVQPGGSLRLSCAASGFTFSTYAMNWVRQAPGKGLEWVGRIRSKYNNYATYYADSVKDRFTISRDDSKNSLYLQMNSLKTEDTAVYYCARHGNFGNSYVSYFAYWGQGTLVTVSSAAAGSHHHHHH	1	–
CD33/CD3 tandem diabody 15 (bispecific antibody) DIQMTQSPSSLSASVGDRVTITCRSSTGAVTTSNYANWVQQKPGKAPKALIGGTNKRAPGVPSRFSGSLIGDKATLTISSLQPEDFATYYCALWYSNLWVFGQGTKVEIKGGSGGSQVQLVQSGAEVKKPGASVKVSCKASGYTFTSYDINWVRQAPGQGLEWMGWMNPNSGNTGFAQKFQGRVTMTRDTSTSTVYMELSSLRSEDTAVYYCARDRANTDYSFGMDVWGQGTLVTVSSGGSGQSVLTQPPSASGTPGQRVTISCSGSRSNIGSNTVNWYQQLPGTAPKLLIYGNNQRPSGVPDRFSGSKSGTSASLAISGLQSEDEADYYCATWDDSLIGWVFGGGTKLTVLGGSGGSEVQLVESGGGLVQPGGSLRLSCAASGFTFSTYAMNWVRQAPGKGLEWVGRIRSKYNNYATYYADSVKDRFTISRDDSKNSLYLQMNSLKTEDTAVYYCARHGNFGNSYVSYFAYWGQGTLVTVSSAAAGSHHHHHH	1.1	–
CD33/CD3 tandem diabody 16 (bispecific antibody) DIQMTQSPSSLSASVGDRVTITCRSSTGAVTTSNYANWVQQKPGKAPKALIGGTNKRAPGVPSRFSGSLIGDKATLTISSLQPEDFATYYCALWYSNLWVFGQGTKVEIKGGSGGSQVQLVQSGAEVKKPGASVKVSCKASGYTFTSYDINWVRQAPGQGLEWMGWMNPNSGNTGFAQKFQGRVTMTRDTSTSTVYMELSSLRSEDTAVYYCARDRANTDYSLGMDVWGQGTLVTVSSGGSGQSVLTQPPSASGTPGQRVTISCSGSRSNIGSNTVNWYQQLPGTAPKLLIYGNNQRPSGVPDRFSGSKSGTSASLAISGLQSEDEADYYCATWDDSLIGWVFGGGTKLTVLGGSGGSEVQLVESGGGLVQPGGSLRLSCAASGFTFSTYAMNWVRQAPGKGLEWVGRIRSKYNNYATYYADSVKDRFTISRDDSKNSLYLQMNSLKTEDTAVYYCARHGNFGNSYVSYFAYWGQGTLVTVSSAAAGSHHHHHH	1.4	–

Further lines, results first:

KD ratio CynoCD33/huCD33 [1]	T cell Proliferation in PBMC EC50 [2] [nM]	Binder
37.3	–	CD33/CD3 tandem diabody 19 (bispecific antibody) DIQMTQSPSSLSASVGDRVTITCRSSTGAVTTSNYANWVQQKPGKAPKALIGGTNKRAPGVPSRFSGSLIGDKATLTISSLQPEDFATYYCALWYSNLWVFGQGTKVEIKGGSGGSQVQLVQSGAEVKKPGASVKVSCKASGYTFTSYYMHWVRQAPGQGLEWMGIINPSGGSTSYAQKFQGRVTMTRDTSTSTVYMELSSLRSEDTAVYYCARDVVPAAIDYYGMDVWGQGTTVTVSSGGSGQSVLTQPPSASGTPGQRVTISCSGSSSNIGSNTVNWYQQLPGTAPKLLIYSDNQRPSGVPDRFSGSKSGSSASLAISGLQSDDEADYYCATWDDSLNGAVFGGGTKLTVLGGSGGSEVQLVESGGGLVQPGGSLRLSCAASGFTFSTYAMNWVRQAPGKGLEWVGRIRSKYNNYATYYADSVKDRFTISRDDSKNSLYLQMNSLKTEDTAVYYCARHGNFGNSYVSYFAYWGQGTLVTVSSAAAGSHHHHHH
3.1	–	CD33/CD3 tandem diabody 18 (bispecific antibody) EVQLVESGGGLVQPGGSLRLSCAASGFTFSTYAMNWVRQAPGKGLEWVGRIRSKYNNYATYYADSVKDRFTISRDDSKNSLYLQMNSLKTEDTAVYYCARHGNFGNSYVSYFAYWGQGTLVTVSSGGSGGSQSVLTQPPSVSGAPGQRVTISCTGSSSNIGAGYDVHWYQQLPGTAPKLLIYGNSNRPSGVPDRFSGSKSGTSASLAITGLQAEDEADYYCQSYDSSLSDVVFGGGTKLTVLGGSGQVQLVQSGAEVKKPGESLKISCKGSGYSFTSYWIGWVRQMPGKGLEWMGIIYPGDSDTRYSPSFQGQVTISADKSISTAYLQWSSLKASDTAMYYCARHKRGSDAFDIWGQGTTVTVSSGGSGGSDIQMTQSPSSLSASVGDRVTITCRSSTGAVTTSNYANWVQQKPGKAPKALIGGTNKRAPGVPSRFSGSLIGDKATLTISSLQPEDFATYYCALWYSNLWVFGQGTKVEIKAAAGSHHHHHH
33.8	0.038	CD33/CD3 tandem diabody 20 (bispecific antibody) DIQMTQSPSSLSASVGDRVTITCRSSTGAVTTSNYANWVQQKPGKAPKGLIGGTNKRAPGVPSRFSGSLIGTDFTLTISSLQPEDFATYYCALWYSNLWVFGQGTKVEIKGGSGGSQVQLVQSGAEVKKPGASVKVSCKASGYTFTSYYMHWVRQAPGQGLEWMGIINPSGGSTSYAQKFQGRVTMTRDTSTSTVYMELSSLRSEDTAVYYCARDVVPAAIDYYGMDVWGQGTTVTVSSGGSGQSVLTQPPSASGTPGQRVTISCSGSSSNIGSNTVNWYQQLPGTAPKLLIYSDNQRPSGVPDRFSGSKSGSSASLAISGLQSDDEADYYCATWDDSLNGAVFGGGTKLTVLGGSGGSEVQLVESGGGLVQPGGSLRLSCAASGFTFSTYAMNWVRQAPGKGLEWVGRIRSKYNNYATYYADSVKDRFTISRDDSKNSLYLQMNSLKTEDTAVYYCARHGNFGNSYVSWFAYWGQGTLVTVSS
